Substitutions are numbered along the chain they refer to.
T1: mouse PD-1 expressed on cells (mouse, UniProt Q02242 25-288)
T1 sequence (looked up): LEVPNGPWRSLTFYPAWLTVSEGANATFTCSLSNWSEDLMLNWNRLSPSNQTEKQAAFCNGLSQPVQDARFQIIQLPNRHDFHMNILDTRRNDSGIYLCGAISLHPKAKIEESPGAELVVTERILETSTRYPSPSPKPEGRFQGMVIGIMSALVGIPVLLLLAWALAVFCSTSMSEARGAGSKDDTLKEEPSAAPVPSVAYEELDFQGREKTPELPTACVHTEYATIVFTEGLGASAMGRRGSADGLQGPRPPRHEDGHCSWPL

T2: mPD1 (soluble, ELISA of Examples 20 and 24) (mouse, UniProt Q02242 25-167, limits assumed)
T2 construct: also called Biotin-mPD1
T2 sequence (looked up): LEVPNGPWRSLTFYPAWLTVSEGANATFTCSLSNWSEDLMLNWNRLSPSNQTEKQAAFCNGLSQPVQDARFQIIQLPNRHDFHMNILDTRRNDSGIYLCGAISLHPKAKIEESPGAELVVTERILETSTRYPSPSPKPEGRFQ

T3: mPD-1-his (mouse, UniProt Q02242 25-167, limits assumed)
T3 construct: domain: IgV domain
T3 sequence: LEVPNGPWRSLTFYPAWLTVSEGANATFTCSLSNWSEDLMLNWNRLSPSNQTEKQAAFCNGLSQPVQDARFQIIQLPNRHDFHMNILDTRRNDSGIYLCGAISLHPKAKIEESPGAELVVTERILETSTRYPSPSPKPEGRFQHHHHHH

T4: mPD-1-Fc (mouse; human, UniProt Q02242 25-167, limits assumed)
T4 construct: domain: IgV domain; not shown: human IgG1 Fc
T4 sequence (looked up): T2 sequence (looked up)

B1: 2C-m3A7/IL-15 (other)
light: DIQMTQSPSSLSASVGDRVTITCRASRSISNWLAWYQQKPGKAPKLLIYAASSLQSGVPSRFSGSGSGTDFTLTISSLQPEDFATYYCQQSYSAPVTFGQGTKVEIKRADAAPTVSIFPPSSEQLTSGGASVVCFLNNFYPKDINVKWKIDGSERQNGVLNSWTDQDSKDSTYSMSSTLTLTKDEYERHNSYTCEATHKTSTSPIVKSFNRNEC
heavy: QVQLVQSGAEVKKPGASVKVSCKASGHTFTSYYIHWVRQAPGQGLEWMGIINPSGGSTSYAQKFQGRVTMTRDTSTSTVYMELSSLRSEDTAVYYCARDRAYGGAGDYWGQGTLVTVSSAKTTAPSVYPLAPVCGDTTGSSVTLGCLVKGYFPEPVTLTWNSGSLSSGVHTFPAVLQSDLYTLSSSVTVTSSTWPSQSITCNVAHPASSTKVDKKIEPRGPTIKPCPPCKCPAPNAAGGPSVFIFPPKIKDVLMISLSPIVTCVVVDVSEDDPDVQISWFVNNVEVHTAQTQTHREDYNSTLRVVSALPIQHQDWMSGKEFKCKVNNKDLGAPIERTISKPKGSVRAPQVYVLPPPEEEMTKKQVTLTCMVTDFMPEDIYVEWTNNGKTELNYKNTEPVLDSDGSYFMYSKLRVEKKNWVERNSYSCSVVHEGLHNHHTTKSFSRTPGSCPPPVSIEHADIRVKNYSVNSRERYVCNSGFKRKAGTSTLIECVINKNTNVAHWTTPSLKCIRDPALVHQRPAPPSGGSGGGGSGGGSGGGGSLQNWIDVRYDLEKIESLIQSIHIDTTLYTDSDFHPSCKVTAMNCFLLELQVILHEYSNMTLNETVRNVLYLANSTLSSNKNVAESGCKECEELEEKTFTEFLQSFIRIVQMFINTS
notes: antibody-cytokine fusion
B2: 1N-m3A7/IL-15 (other)
light: B1 light
heavy 1: QVQLVQSGAEVKKPGASVKVSCKASGHTFTSYYIHWVRQAPGQGLEWMGIINPSGGSTSYAQKFQGRVTMTRDTSTSTVYMELSSLRSEDTAVYYCARDRAYGGAGDYWGQGTLVTVSSAKTTAPSVYPLAPVCGDTTGSSVTLGCLVKGYFPEPVTLTWNSGSLSSGVHTFPAVLQSDLYTLSSSVTVTSSTWPSQSITCNVAHPASSTKVDKKIEPRGPTIKPCPPCKCPAPNAAGGPSVFIFPPKIKDVLMISLSPIVTCVVVDVSEDDPDVQISWFVNNVEVHTAQTQTHREDYNSTLRVVSALPIQHQDWMSGKEFKCKVNNKDLGAPIERTISKPKGSVRAPQVYVYPPPEEEMTKKQVTLTCMVTDFMPEDIYVEWTNNGKTELNYKNTEPVLDSDGSYAMVSKLRVEKKNWVERNSYSCSVVHEGLHNHHTTKSFSRTPGK
heavy 2: ITCPPPVSIEHADIRVKNYSVNSRERYVCNSGFKRKAGTSTLIECVINKNTNVAHWTTPSLKCIRDPALVHQRPAPPSGGSGGGGSGGGSGGGGSLQNWIDVRYDLEKIESLIQSIHIDTTLYTDSDFHPSCKVTAMNCFLLELQVILHEYSNMTLNETVRNVLYLANSTLSSNKNVAESGCKECEELEEKTFTEFLQSFIRIVQMFINTSGGGGSGGGGSGGGGSGGGGSGGGGSGGGGSQVQLVQSGAEVKKPGASVKVSCKASGHTFTSYYIHWVRQAPGQGLEWMGIINPSGGSTSYAQKFQGRVTMTRDTSTSTVYMELSSLRSEDTAVYYCARDRAYGGAGDYWGQGTLVTVSSAKTTAPSVYPLAPVCGDTTGSSVTLGCLVKGYFPEPVTLTWNSGSLSSGVHTFPAVLQSDLYTLSSSVTVTSSTWPSQSITCNVAHPASSTKVDKKIEPRGPTIKPCPPCKCPAPNAAGGPSVFIFPPKIKDVLMISLSPIVTCVVVDVSEDDPDVQISWFVNNVEVHTAQTQTHREDYNSTLRVVSALPIQHQDWMSGKEFKCKVNNKDLGAPIERTISKPKGSVRAPQVYVLPPPEEEMTKKQVTLLCMVTDFMPEDIYVEWTNNGKTELNYLNWEPVLDSDGSYFMYSKLRVEKKNWVERNSYSCSVVHEGLHNHHTTKSFSRTPGK
notes: antibody-cytokine fusion
B3: 2N-m3A7/IL-15 (other)
light: B1 light
heavy: B2 heavy 2 with L609T, L635K, W637T
notes: antibody-cytokine fusion
B4: 1C-m3A7/IL-15 (other)
light: B1 light
heavy 1: B2 heavy 1
heavy 2: B1 heavy with T368L, K394L, T396W
notes: antibody-cytokine fusion
B5: m2C1 (antibody, V domains shown)
VH: QVQLVQSGAEVKKPGASVKVSCKASGHTFTSYYIHWVRQAPGQGLEWMGIINPSGGSTSYAQKFQGRVTMTRDTSTSTVYMELSSLRSEDTAVYYCARDRAYGGAGDYWGQGTLVTVSS
VL: DIQMTQSPSSLSASVGDRVTITCRASRSISSWLAWYQQKPGKAPKLLIYAASSLQSGVPSRFSGSGSGTDFTLTISSLQPEDFATYYCQQSYSIPATFGQGTKVEIK
notes: R3A9 derivative; also called m3CM (apparent misprint)

Tests used:
[1] = target: T1, mouse PD-1 expressed on cells; experiment: cell-based or functional assay
[2] = target: T1, mouse PD-1 expressed on cells; experiment: flow cytometry on mPD-1-HEK293 cells
[3] = target: T2, mPD1 (soluble, ELISA of Examples 20 and …); experiment: ELISA, dose-response binding to mPD-1
[4] = target: T3, mPD-1-his; experiment: kinetics (Ka/Kd/KD; method not named), mPD-1-his
[5] = target: T4, mPD-1-Fc; experiment: kinetics, mPD-1-Fc (off rate outside the machine limit)
[6] = target: T2, mPD1 (soluble, ELISA of Examples 20 and …); experiment: competition ELISA, blocking of mPD-L1 binding to mPD-1
[7] = target: T5, hPD1 (soluble, ELISA of Example 20) (human, UniProt Q15116 25-167, limits assumed); experiment: ELISA, hPD1
[8] = target: T2, mPD1 (soluble, ELISA of Examples 20 and …); experiment: ELISA, mPD1
[9] = target: T6, human PD-1 expressed on cells (human, UniProt Q15116 25-288); experiment: cell-based or functional assay
[10] = target: T1, mouse PD-1 expressed on cells; experiment: cell-based or functional assay; remark: listed apart in the source
[11] = target: T7, hPD-1-Fc (human, UniProt Q15116 25-167); experiment: SPR Biacore, hPD1-Fc
T7 construct: domain: IgV domain; also called human PD-1-Fc; not shown: human IgG1 Fc

[12] = target: T4, mPD-1-Fc; experiment: SPR Biacore, mPD1-Fc
[13] = target: T3, mPD-1-his; experiment: SPR Biacore, mPD1-his
[14] = target: T5, hPD1 (soluble, ELISA of Example 20); experiment: blocking ELISA, hPD1 to hPDL1
[15] = target: T2, mPD1 (soluble, ELISA of Examples 20 and …); experiment: blocking ELISA, mPD1 to mPDL1
[16] = target: T6, human PD-1 expressed on cells; experiment: flow cytometry, hPD1-293 cells
[17] = target: T1, mouse PD-1 expressed on cells; experiment: flow cytometry, mPD1-293 cells
[18] = target: T1, mouse PD-1 expressed on cells; experiment: flow cytometry, mPD1-eff cells
[19] = target: T2, mPD1 (soluble, ELISA of Examples 20 and …); experiment: ELISA, biotin-mPD1 on streptavidin

T7 sequence (Q15116 25-167 limits assumed): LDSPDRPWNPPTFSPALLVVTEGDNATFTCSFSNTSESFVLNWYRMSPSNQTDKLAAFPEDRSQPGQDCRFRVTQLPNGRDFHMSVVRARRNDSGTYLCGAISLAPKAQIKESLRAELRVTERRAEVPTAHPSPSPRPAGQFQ
T5 sequence (Q15116 25-167 limits assumed): as above
T6 sequence (Q15116 25-288): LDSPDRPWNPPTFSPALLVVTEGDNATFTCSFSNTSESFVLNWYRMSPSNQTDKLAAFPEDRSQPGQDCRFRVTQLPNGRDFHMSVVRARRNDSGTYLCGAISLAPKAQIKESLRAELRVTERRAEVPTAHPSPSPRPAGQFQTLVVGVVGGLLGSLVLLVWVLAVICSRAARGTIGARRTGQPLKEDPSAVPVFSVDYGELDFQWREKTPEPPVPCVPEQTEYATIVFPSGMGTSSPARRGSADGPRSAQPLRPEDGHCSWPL

| Binder | EC50 (read off the curve) [1] | EC50 (read off the curve) [2] | EC50 (read off the curve) [3] | Kd [4] | Kd [5] | IC50 (read off the curve) [6] | further results |
| --- | --- | --- | --- | --- | --- | --- | --- |
| B1 | ~0.7 nM | ~1 nM | ~0.2 nM | 0.247 nM | 0.0593 nM | ~0.2 nM |  |
| B2 | ~0.8 nM | ~0.8 nM | ~0.2 nM | 0.457 nM | 0.0878 nM | ~0.3 nM |  |
| B3 | ~2 nM | ~1 nM | ~0.3 nM | 0.283 nM | 0.00909 nM | ~0.3 nM |  |
| B4 | ~0.6 nM | ~0.7 nM | ~0.1 nM | 0.296 nM | 0.0927 nM | ~0.3 nM |  |
| B5 |  |  |  |  |  |  | EC50 [7]: 0.149 nM; EC50 [8]: 0.572 nM; IC50, Promega blockade bioassay [9]: 31.2 nM; IC50, Promega blockade bioassay [10]: 1.13 nM; Kd [11]: 2.81 nM; koff [11]: 0.000355 s⁻¹; kon [11]: 126000 M⁻¹ s⁻¹; Kd [12]: 2.91 nM; koff [12]: 0.000583 s⁻¹; kon [12]: 200000 M⁻¹ s⁻¹; Kd [13]: 3.22 nM; koff [13]: 0.000693 s⁻¹; kon [13]: 215000 M⁻¹ s⁻¹; IC50 [14]: 5.71 nM; IC50 [15]: 0.464 nM; EC50 [16]: 1.26 nM; EC50 [17]: 0.411 nM; EC50 [18]: 0.373 nM; EC50 [19]: 0.291 nM |
